The source of these data is article PMC9977175 (Science Advances, 2023).

Sequences and labels used below:
B1: ATG16L1(124 to 247) (domain or fragment, human, UniProt Q676U5 124-247, looked up)
chain: MQMNEAKIAECLQTISDLETECLDLRTKLCDLERANQTLKDEYDALQITFTALEGKLRKTTEENQELVTRWMAEKAQEANRLNAENEKDSRRRQARLQKELAEAAKEPLPVEQDDDIEVIVDET
B2: Trx-tagged ATG16L1(78 to 247) (domain or fragment, human, UniProt Q676U5 78-247, looked up)
chain: NDNQLQEMAQLRIKHQEELTELHKKRGELAQLVIDLNNQMQRKDREMQMNEAKIAECLQTISDLETECLDLRTKLCDLERANQTLKDEYDALQITFTALEGKLRKTTEENQELVTRWMAEKAQEANRLNAENEKDSRRRQARLQKELAEAAKEPLPVEQDDDIEVIVDET
B3: Trx-tagged ATG16L1(78 to 206) (domain or fragment, human, UniProt Q676U5 78-206, looked up)
chain: NDNQLQEMAQLRIKHQEELTELHKKRGELAQLVIDLNNQMQRKDREMQMNEAKIAECLQTISDLETECLDLRTKLCDLERANQTLKDEYDALQITFTALEGKLRKTTEENQELVTRWMAEKAQEANRLN
B4: Trx-ATG16L1(78 to 197) (domain or fragment, human, UniProt Q676U5 78-197, looked up)
chain: NDNQLQEMAQLRIKHQEELTELHKKRGELAQLVIDLNNQMQRKDREMQMNEAKIAECLQTISDLETECLDLRTKLCDLERANQTLKDEYDALQITFTALEGKLRKTTEENQELVTRWMAE

This data set concerns the molecule itself. As to the kind of experiment: SEC-MALS.
By stoichiometry N is commonly meant a count of units in the complex or per binding partner. As to B1, the “stoichiometry N” value was determined as 2.

B2: the “stoichiometry N” value amounted to 2.

With B3, the “stoichiometry N” value was 2. Next, B4: 2.
